Assay results taken from patent publication US20220096649A1 (TALLAC THERAPEUTICS, published 2022).
Positions count from the first letter of the chain named. Names and notes keep the numbering of the source.

T1: SIRP-α cynomolgus (cynomolgus, UniProt A0A2K5VYQ9 31-148)
T1 construct: Soluble analyte in SPR; also called cynomologous monkey SIRP-α
T1 sequence: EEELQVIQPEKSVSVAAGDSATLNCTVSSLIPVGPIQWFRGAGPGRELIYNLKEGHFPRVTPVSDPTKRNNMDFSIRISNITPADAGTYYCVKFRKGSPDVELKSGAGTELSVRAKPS

T2: SIRP-α mouse BL6 (mouse (BL6), UniProt P97797 32-150, limits assumed)
T2 construct: Soluble analyte in SPR
T2 sequence (looked up): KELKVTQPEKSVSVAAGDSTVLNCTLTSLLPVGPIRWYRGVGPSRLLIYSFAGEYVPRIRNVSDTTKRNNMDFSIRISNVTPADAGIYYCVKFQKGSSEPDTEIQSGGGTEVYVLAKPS

B1: Hum9/AB21_HC_Mutall (antibody, V domains shown)
VH: EVQLVESGGGVVQPGGSLRLSCAASGFTFSSNAMSWVRQAPGKGLEWVAGISAGGSDTYYPASVKGRFTISRDNSKNTLYLQMNSLRAEDTAVYYCARETWNHLFDYWGQGTLVTVSS
VL: SYELTQPPSVSVSPGQTARITCSGGAYSSYYYAWYQQKPGQAPVLVIYSDDKRPSGIPERFSGSSSGTTVTLTISGVQAEDEADYYCGGYDQSSYTNPFGGGTKLTVL
notes: Whole antibody
B2: Anti-SIRP-α antibody 136, light chain wt, heavy chain Mut (antibody, V domains shown)
VH: EVQLVESGGGVVQPGRSLRLSCAASGFTFSSYDVNWVRQAPGKGLEWVSLISGSGEIIYYADSVKGRFTISRDNSKNTLYLQMNSLRAEDTAVYYCAKENNRYRFFDDWGQGTLVTVSS
VL: ETVLTQSPGTLTLSPGERATLTCRASQSVYTYLAWYQEKPGQAPRLLIYGASSRATGIPDRFSGSGSGTEFTLTISSLQSEDFAVYYCQQYYDRPPLTFGGGTKVEIK
notes: Whole antibody; Heavy chain mut = D1E, R13Q, E16R, M34V, E43K, L111Q
B3: Anti-SIRP-α antibody 136, light chain wt, heavy chain wt (antibody, V domains shown)
VH: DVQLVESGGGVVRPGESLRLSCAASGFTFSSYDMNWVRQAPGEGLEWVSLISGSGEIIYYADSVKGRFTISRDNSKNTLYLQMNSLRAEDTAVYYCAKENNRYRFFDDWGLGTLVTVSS
VL: B2 VL
notes: Whole antibody
B4: Anti-SIRP-α antibody 136, light chain Mut, heavy chain Mut (antibody, V domains shown)
VH: B2 VH
VL: B2 VL with T2I, T12S, T22S, E38Q
notes: Whole antibody
B5: Anti-SIRP-α antibody 136, light chain Mut_I2T, heavy chain Mut (antibody, V domains shown)
VH: B2 VH
VL: B2 VL with T12S, T22S, E38Q
notes: Whole antibody
B6: Anti-SIRP-α antibody 136, light chain Mut_S22T, heavy chain Mut (antibody, V domains shown)
VH: B2 VH
VL: B2 VL with T2I, T12S, E38Q
notes: Whole antibody
B7: Anti-SIRP-α antibody 136, light chain Mut_I2T, heavy chain Mut_V34M (antibody, V domains shown)
VH: B2 VH with V34M
VL: B2 VL with T12S, T22S, E38Q
notes: Whole antibody
B8: Anti-SIRP-α antibody 136, light chain Mut, heavy chain wt (antibody, V domains shown)
VH: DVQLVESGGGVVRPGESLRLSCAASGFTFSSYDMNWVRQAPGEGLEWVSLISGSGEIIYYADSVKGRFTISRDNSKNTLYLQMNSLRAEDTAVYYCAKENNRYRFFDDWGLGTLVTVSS
VL: B2 VL with T2I, T12S, T22S, E38Q
notes: Whole antibody; Light chain mut = T2I, T12S, T22S, E38Q
B9: Anti-SIRP-α antibody 136, light chain Mut_S12T, heavy chain Mut (antibody, V domains shown)
VH: B2 VH
VL: B2 VL with T2I, T22S, E38Q
notes: Whole antibody
B10: Anti-SIRP-α antibody 136, light chain Mut_Q38E, heavy chain Mut (antibody, V domains shown)
VH: B2 VH
VL: B2 VL with T2I, T12S, T22S
notes: Whole antibody
B11: Anti-SIRP-α antibody 119, light chain Mut, heavy chain wt (antibody, V domains shown)
VH: EVQLLESGGGVVQPGGSLRLSCAASGFSFSNFAMTWVRQAPGEGLEWVSTIGSGDTYYADSVKGRFTISRDNSKNTLYLQMNSLRAEDTAVYYCAKDSTVSWSGDFFDYWGLGTLVTVSS
VL: EIVLTQSPATLSVSPGERATLSCRASQNVKNDLAWYQQKPGQAPRLLIYAARIRETGIPARFSGSGSGTEFTLTISSLQSEDFAVYYCQQYYDWPPFTFGGGTKVEIK
notes: Whole antibody; Light chain mut = F21L, R39K, E60A, T76S
B12: Anti-SIRP-α antibody 135, light chain wt, heavy chain wt (antibody, V domains shown)
VH: B11 VH with E1D, L5V, Q13R, G16E, N31I, F32Y, T35S, S53A, G54D, S101G
VL: EIVLTQSPATLSVSPGERVTFSCRASQNVRSDIAWYQQKPGQAPRLLIYAASSRDTGIPDRFSGSGSGTDFTLTISSLQSEDFGVYYCQQYYDWPPFTFGGGTKVEIK
notes: Whole antibody
B13: Anti-SIRP-α antibody 119, light chain wt, heavy chain Mut (antibody, V domains shown)
VH: B11 VH with M34V, E43K, L112Q
VL: B11 VL with L21F, K39R, A60E, S76T
notes: Whole antibody; Heavy chain mut = D1E, E43K, L112Q, M34V
B14: Anti-SIRP-α antibody 135, light chain wt, heavy chain Mut (antibody, V domains shown)
VH: B11 VH with L5V, N31I, F32Y, M34V, T35S, E43K, S53A, G54D, S101G, L112Q
VL: B12 VL
notes: Whole antibody; Heavy chain mut = D1E, R13Q, E16G, M34V, E43K, L112Q
B15: Anti-SIRP-α antibody 119, light chain wt, heavy chain wt (antibody, V domains shown)
VH: B11 VH
VL: B11 VL with L21F, K39R, A60E, S76T
notes: Whole antibody (FreeStyle 293-FS, protein A purified)
B16: Anti-SIRP-α antibody 135, light chain Mut, heavy chain wt (antibody, V domains shown)
VH: B11 VH with E1D, L5V, Q13R, G16E, N31I, F32Y, T35S, S53A, G54D, S101G
VL: B12 VL with F21L, D60A
notes: Whole antibody; Light chain mut = F21L, D60A
B17: Anti-SIRP-α antibody 119, light chain Mut, heavy chain Mut (antibody, V domains shown)
VH: B11 VH with M34V, E43K, L112Q
VL: B11 VL
notes: Whole antibody
B18: Anti-SIRP-α antibody 119, light chain Mut, heavy chain Mut_V34M (antibody, V domains shown)
VH: B11 VH with E43K, L112Q
VL: B11 VL
notes: Whole antibody

How the values were obtained:
Assay in all cases: SPR, antibody on GLC chip, SIRP as analyte
SIRP-α human v2 = biological target: T3, SIRP-α human v2 (human, UniProt P78324 31-149, limits assumed)
T3 construct: Soluble analyte in SPR
Experimental: (§1) The running buffer was PBS pH 7.4 with 0.01% TWEEN-20 (PBST+). All analytes were used at their nominal concentrations as determined by A280 absorbance and using their molar calculated extinction coefficient. Analytes were injected in a “one-shot” kinetic mode as described (see, e.g., Bravman et al., Anal. Biochem. 2006, 358, 281-288).
(§2) For the method using a GLC chip, the analytes were injected and flowed over anti-SIRPα antibodies immobilized (˜1000 RUs) on GLC chips using Proteon Amine Coupling Kit. For the immobilization step, the GLC chip was activated with EDAC/Sulpho-NHS 1:1 (Biorad) diluted 1/100 for 300 s at 25 μL/min. Anti-SIRPα antibodies were diluted to 80 nM concentration in 10 mM sodium acetate buffer pH 4.5 and immobilized to the chip at 30 μL/min for 50 s. Chip was inactivated with ethanolamine for 300 s at 25 μL/min. The analytes (e.g., SIRP-α from different species, SIRP-β, SIRP-γ) were injected in a “one-shot” kinetic mode at nominal concentrations of 100, 33, 11, 3.7, 1.2, and 0 nM. Association times were monitored for 90 s at 100 uL/min, and dissociation times were monitored for 1200 s. The surfaces were regenerated with a 2:1 v/v blend of Pierce IgG elution buffer/4M NaCl.
(§3) Biosensor data were double-referenced by subtracting the interspot data (containing no immobilized protein) from the reaction spot data (immobilized protein) and then subtracting the response of a buffer “blank” analyte injection from that of an analyte injection. Double-referenced data were fit globally to a simple Langmuir model and the KD value was calculated from the ratio of the apparent kinetic rate constants (KD=kd/kₐ).

SIRP-α cynomolgus = biological target: T1, SIRP-α cynomolgus
Experimental: as §1, §2, §3

Human SIRPβ = biological target: T4, Human SIRPβ (human, UniProt O00241 30-148)
T4 construct: Soluble analyte in SPR
Experimental: as §1, §2, §3

Human SIRPγ = biological target: T5, Human SIRPγ (human, UniProt Q9P1W8 29-147, limits assumed)
T5 construct: Soluble analyte in SPR
Experimental: as §1, §2, §3

SIRP-α mouse BL6 = biological target: T2, SIRP-α mouse BL6
Experimental: as §1, §2, §3

T3 sequence (P78324 other isoform, or with tags, fused parts or gaps limits assumed): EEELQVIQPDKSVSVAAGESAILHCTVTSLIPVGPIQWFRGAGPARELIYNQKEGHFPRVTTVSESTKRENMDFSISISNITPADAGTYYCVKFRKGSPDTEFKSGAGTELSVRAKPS
T4 sequence (O00241 30-148): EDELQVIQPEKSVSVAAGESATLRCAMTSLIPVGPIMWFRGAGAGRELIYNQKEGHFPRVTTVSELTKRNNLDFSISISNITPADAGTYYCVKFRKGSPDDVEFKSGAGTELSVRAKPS
T5 sequence (Q9P1W8 29-147 limits assumed): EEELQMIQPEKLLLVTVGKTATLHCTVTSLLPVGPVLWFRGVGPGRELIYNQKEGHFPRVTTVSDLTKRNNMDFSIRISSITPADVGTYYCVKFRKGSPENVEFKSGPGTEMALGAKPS

| Binder | Kd (SIRP-α human v2) [nM] | Kd (SIRP-α cynomolgus) [nM] | Kd (Human SIRPβ) [nM] | Kd (Human SIRPγ) [nM] | Kd (SIRP-α mouse BL6) [nM] | binding result (SIRP-α mouse BL6) |
| --- | --- | --- | --- | --- | --- | --- |
| B1 | 0.12 | 0.22 | 0.057 | 0.035 | – | – |
| B2 | 1.7 | – | 3.5 | 17 | 23 | – |
| B3 | 1.6 | – | 4.4 | 24 | 13 | – |
| B4 | 20 | – | – | 1.7 | 32 | – |
| B5 | 1.8 | – | 3.2 | 40 | 15 | – |
| B6 | 8.3 | – | – | 62 | 13 | – |
| B7 | 17 | 2.1 | 2.2 | 34 | 14 | – |
| B8 | 17 | – | – | 20 | 33 | – |
| B9 | 11 | – | – | 67 | 16 | – |
| B10 | 13 | – | – | 19 | 33 | – |
| B11 | 0.086 | 0.14 | – | 0.23 | – | no binding (tested: 100 nM (highest analyte concentration)) |
| B12 | 0.029 | 0.097 | – | 0.54 | – | no binding (tested: 100 nM (highest analyte concentration)) |
| B13 | 0.069 | 0.16 | – | – | – | no binding (tested: 100 nM (highest analyte concentration)) |
| B14 | 0.02 | 0.13 | – | 0.78 | – | no binding (tested: 100 nM (highest analyte concentration)) |
| B15 | 0.068 | 0.11 | 0.34 | 0.27 | – | no binding (tested: 100 nM (highest analyte concentration)) |
| B16 | 0.027 | 0.1 | – | 0.52 | – | no binding (tested: 100 nM (highest analyte concentration)) |
| B17 | 0.088 | 0.2 | 0.46 | 0.34 | – | no binding (tested: 100 nM (highest analyte concentration)) |
| B18 | 0.069 | 0.12 | 0.34 | 0.26 | – | no binding (tested: 100 nM (highest analyte concentration)) |
